Source: article PMC7840605, “3-Hydroxyphthalic Anhydride-Modified Chicken Ovalbumin as a Potential Candidate Inhibits SARS-CoV-2 Infection by Disrupting the Interaction of Spike Protein With Host ACE2 Receptor” (Frontiers in Pharmacology, 2020)

Molecular target: SARS-CoV-2 spike (S) protein (SARS-CoV-2, UniProt P0DTC2)
Assay: cell-based or functional assay

B1: chicken ovalbumin (natural protein)
chain: MGSIGAASMEFCFDVFKELKVHHANENIFYCPIAIMSALAMVYLGAKDSTRTQINKVVRFDKLPGFGDSIEAQCGTSVNVHSSLRDILNQITKPNDVYSFSLASRLYAEERYPILPEYLQCVKELYRGGLEPINFQTAADQARELINSWVESQTNGIIRNVLQPSSVDSQTAMVLVNAIVFKGLWEKAFKDEDTQAMPFRVTEQESKPVQMMYQIGLFRVASMASEKMKILELPFASGTMSMLVLLPDEVSGLEQLESIINFEKLTEWTSSNVMEERKIKVYLPRMKMEEKYNLTSVLMAMGITDVFSSSANLSGISSAESLKISQAVHAAHAEINEAGREVVGSAEAGVDAASVSEEFRADHPFLFCIKHIATNAVLFFGRCVSP
IC50 against live SARS-CoV-2 in Vero E6 cells (CPE assay): > 50 µM
